Sequences and labels used below:
T1: mouse TREM2 on BWZ cells (mouse, UniProt Q99NH8 19-227)
T1 construct: whole, on cells; also called BWZ Mouse TREM2
T1 sequence (looked up): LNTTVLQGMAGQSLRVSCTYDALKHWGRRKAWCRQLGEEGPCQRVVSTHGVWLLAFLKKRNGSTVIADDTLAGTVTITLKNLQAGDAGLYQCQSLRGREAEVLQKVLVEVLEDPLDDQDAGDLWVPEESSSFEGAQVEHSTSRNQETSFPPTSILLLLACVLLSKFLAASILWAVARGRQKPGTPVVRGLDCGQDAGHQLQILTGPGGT

T2: human TREM2 on BWZ cells (human, UniProt Q9NZC2 19-230)
T2 construct: whole, on cells; not tied to the cell line; also called BWZ Human TREM2
T2 sequence (looked up): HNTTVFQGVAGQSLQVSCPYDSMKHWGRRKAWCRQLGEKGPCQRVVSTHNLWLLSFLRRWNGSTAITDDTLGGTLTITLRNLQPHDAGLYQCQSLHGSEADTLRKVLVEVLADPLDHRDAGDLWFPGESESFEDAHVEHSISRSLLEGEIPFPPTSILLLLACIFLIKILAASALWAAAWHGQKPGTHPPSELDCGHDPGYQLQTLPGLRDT

B1: T1-78 (antibody, IgG1, V domains shown)
VH: QLQLQESGPGLVKPSETLSLTCTVSGGSISSSSYYWGWIRQPPGKGLEWIGSIYYSGSTYYNPSLKSRVTISVDTSKNQFSLKLSSVTAADTAVYYCARDLGQYEGYFDLWGRGTLVTVSS
VL: not shown
notes: huIgG1; also called TI-78; ADI-19155
B2: T1-12 (antibody, IgG1, V domains shown)
VH: B1 VH with D100G, L101G, Q103Y, Y104P, E105W, G106E, Y107A, L110Y, R113K, L116T
VL: EIVLTQSPATLSLSPGERATLSCRASQSVSSYLAWYQQKPGQAPRLLIYDASNRATGIPARFSGSGSGTDFTLTISSLEPEDFAVYYCQQYTSWPLTFGGGTKVEIK
notes: huIgG1; also called TI-12; ADI-19079
B3: T1-79 (antibody, IgG1, V domains shown)
VH: B1 VH with D100L, L101G, G102D, Q103G, E105R, G106I, Y107W, F108A, L110Y, R113Q
VL: not shown
notes: huIgG1; also called TI-79; ADI-19156
B4: T1-11 (antibody, IgG1, V domains shown)
VH: QLQLQESGPGLVKPSETLSLTCTVSGGSISSSSYYWGWIRQPPGKGLEWIGSIYYSGSTYYNPSLKSRVTISVDTSKNQFSLKLSSVTAADTAVYYCARSGEYGFDLWGRGTLVTVSS
VL: not shown
notes: huIgG1; also called TI-11; ADI-19078
B5: T1-1 (antibody, IgG1, V domains shown)
VH: QVQLVQSGAEVKKPGSSVKVSCKASGGTFSSYAISWVRQAPGQGLEWMGGIIPIFGTANYAQKFQGRVTITADESTSTAYMELSSLRSEDTAVYYCARGQGSDHYYYGMDVWGQGTTVTVSS
VL: not shown
notes: huIgG1; also called TI-1; ADI-19067
B6: T1-73 (antibody, IgG1, V domains shown)
VH: EVQLVESGGGLVQPGRSLRLSCAASGFTFDDYAMHWVRQAPGKGLEWVSGISWNSGSIGYADSVKGRFTISRDNAKNSLYLQMNSLRAEDTALYYCAKAPRMYGYFDLWGRGTSVTVSS
VL: DIQMTQSPSTLSASVGDRVTITCRASQSISSWLAWYQQKPGKAPKLLIYKASSLESGVPSRFSGSGSGTEFTLTISSLQPDDFATYYCQQYRTYPTFGGGTKVEIK
notes: huIgG1; also called TI-73; ADI-19149
B7: T1-74 (antibody, IgG1, V domains shown)
VH: B6 VH with A99G, M102T, Y103R, S114L
VL: DIQMTQSPSTLSASVGDRVTITCRASQSISSWLAWYQQKPGKAPKLLIYKASSLESGVPSRFSGSGSGTEFTLTISSLQPDDFATYYCQQHSLLSITFGGGTKVEIK
notes: huIgG1; also called TI-74; ADI-19151
B8: T1-77 (antibody, IgG1, V domains shown)
VH: QVQLQESGPGLVKPSETLSLTCAVSGYSISSGYYWAWIRQPPGKGLEWIGSIYHSGSTYYNPSLKSRVTISVDTSKNQFSLKLSSVTAADTAVYYCARGGPYPWSGWFDPWGQGTLVTVSS
VL: EIVMTQSPATLSVSPGERATLSCRASQSVGSNLAWYQQKPGQAPRLLIYGASTRATGIPARFSGSGSGTEFTLTISSLQSEDFAVYYCQQHDVWPYTFGGGTKVEIK
notes: huIgG1; also called TI-77; ADI-19154
B9: T1-4 (antibody, IgG1, V domains shown)
VH: QVQLVQSGAEVKKPGSSVKVSCKASGGTFSSYAISWVRQAPGQGLEWMGGIIPIFGTANYAQKFQGRVTITADESTSTAYMELSSLRSEDTAVYYCARHYYYGYAYFDLWGRGTLVTVSS
VL: B8 VL with G30S, H91F, D92N, V93N, W94H, Y96I
notes: huIgG1; also called TI-4; ADI-19070
B10: T1-17 (antibody, IgG1, V domains shown)
VH: QVQLQESGPGLVKPSETLSLTCTVSGGSISSYYWSWIRQPPGKGLEWIGSIYYSGSTNYNPSLKSRVTISVDTSKNQFSLKLSSVTAADTAVYYCARGAPGGRHNWFDPWGQGTLVTVSS
VL: DIQMTQSPSSLSASVGDRVTITCQASQDISNYLNWYQQKPGKAPKLLIYDASNLATGVPSRFSGSGSGTDFTFTISSLQPEDIATYYCQQSDIHPRTFGGGTKVEIK
notes: huIgG1; also called TI-17; ADI-19084
B11: T1-76 (antibody, IgG1, V domains shown)
VH: not shown
VL: B7 VL with K50D, L93T, L94Y, I96W
notes: huIgG1; also called TI-76; ADI-19153
B12: T1-72 (antibody, IgG1, V domains shown)
VH: EVQLVESGGGLVQPGRSLRLSCAASGFTFDDYAMHWVRQAPGKGLEWVSGISWNSGDIGYADSVKGRFTISRDNAKNSLYLQMNSLRAEDTALYYCAKGPRMTHSYFDLWGRGTLVTVSS
VL: not shown
notes: huIgG1; also called TI-72; ADI-19148
B13: T1-75 (antibody, IgG1, V domains shown)
VH: B12 VH with E1Q, G99A, M102T, T103R, H104W, S105T, L109Y, R112Q
VL: EIVLTQSPATLSLSPGERATLSCRASQSVSSYLAWYQQKPGQAPRLLIYDASNRATGIPARFSGSGSGTDFTLTISSLEPEDFAVYYCQHYNLWRTFGGGTKVEIK
notes: huIgG1; also called TI-75; ADI-19152
B14: T1-14 (antibody, IgG1, V domains shown)
VH: QVQLVESGGGVVQPGRSLRLSCAASGFTFSSYGMHWVRQAPGKGLEWVAVISYDGSNKYYADSVKGRFTISRDNSKNTLYLQMNSLRAEDTAVYYCARRSSGDYLDVWGQGTMVTVSS
VL: not shown
notes: huIgG1; also called TI-14; ADI-19081
B15: T1-7 (antibody, IgG1, V domains shown)
VH: QVQLVQSGAEVKKPGASVKVSCKASGYTFTSYYMHWVRQAPGQGLEWMGIINPSGGSTSYAQKFQGRVTMTRDTSTSTVYMELSSLRSEDTAVYYCARGLIYGDAFDYWGQGTLVTVSS
VL: not shown
notes: huIgG1; also called TI-7; ADI-19073
B16: T1-2 (antibody, IgG1, V domains shown)
VH: QVQLVQSGAEVKKPGSSVKVSCKASGGTFSSYAISWVRQAPGQGLEWMGGIIPIFGTANYAQKFQGRVTITADESTSTAYMELSSLRSEDTAVYYCAREGGPRGASFNWFDPWGQGTLVTVSS
VL: EIVLTQSPGTLSLSPGERATLSCRASQSVSSSYLAWYQQKPGQAPRLLIYGASSRATGIPDRFSGSGSGTDFTLTISRLEPEDFAVYYCQQYLGFPPTFGGGTKVEIK
notes: huIgG1; also called TI-2; ADI-19068
B17: T1-15 (antibody, IgG1, V domains shown)
VH: EVQLVESGGGLVKPGGSLRLSCAASGFTFSSYSMNWVRQAPGKGLEWVSSISSSSSYIYYADSVKGRFTISRDNAKNSLYLQMNSLRAEDTAVYYCARRGGSYDAFQHWGQGTLVTVSS
VL: B16 VL with Y92A, L93F, G94I, F95S
notes: huIgG1; also called TI-15; ADI-19082
B18: T1-5 (antibody, IgG1, V domains shown)
VH: QVQLVQSGAEVKKPGASVKVSCKASGYTFTSYYMHWVRQAPGQGLEWMGVINPSGGSTSYAQKFQGRVTMTRDTSTSTVYMELSSLRSEDTAVYYCARESDGIDSYFDYWGQGTLVTVSS
VL: not shown
notes: huIgG1; also called TI-5; ADI-19071
B19: T1-69 (antibody, IgG1, V domains shown)
VH: QVQLVQSGAEVKKPGASVKVSCKASGYTFTSYGISWVRQAPGQGLEWMGWISAYNGNTNYAQKLQGRVTMTTDTSTSTAYMELRSLRSDDTAVYYCARGAGMYDGSPLGMDVWGQGTTVTVSS
VL: DIQMTQSPSSVSASVGDRVTITCRASQGISSWLAWYQQKPGKAPKLLIYAASNLQSGVPSRFSGSGSGTDFTLTISSLQPEDFATYYCQQATAHPPTFGGGTKVEIK
notes: huIgG1; also called TI-69; ADI-19145
B20: T1-71 (antibody, IgG1, V domains shown)
VH: B6 VH with D30G, A99G, M102R, Y103T, G104S, Y105H, F106L, L108I, R111Q, S114M
VL: B19 VL with S30D, N53S, A93S, H94L, P96L
notes: huIgG1; also called TI-71; ADI-19147
B21: T1-70 (antibody, IgG1, V domains shown)
VH: QVQLVQSGAEVKKPGASVKVSCKASGYTFTSYGIHWVRQAPGQGLEWMGWISAYNGNTNYAQKLQGRVTMTTDTSTSTAYMELRSLRSDDTAVYYCARAGTIYGRLDLWGRGTLVTVSS
VL: B19 VL with M4L, G28D, N53S, T92V, A93S, P96L
notes: huIgG1; also called TI-70; ADI-19146

From patent US11472877 (Alector, dated 2022) come the findings set out here.

Residue numbers refer to the chain shown, from its start.

The target in one assay is T1, mouse TREM2 on BWZ cells. Kind of assay: FACS, BWZ cells. Background: In flow cytometry, cells or beads pass a laser one at a time.
Consider B1, for which the binding result is “no binding”.
For the molecule B2, the binding result was “no binding”.
Turning to B3, the binding result is reported as “no binding”.
Consider B4, for which the binding result is given as “no binding”.
For the molecule B5, the binding result was “no binding”.
Turning to B6, the binding result was “no binding”.
With B7, the binding result is listed as “no binding”.
As for B8, the binding result was “no binding”.
With B9, the binding result is “no binding”.
The same measure, in the same setting: in the case of B10 it was “no binding”; in that of B11, “no binding”; in that of B12, “no binding”.
As for B13, the binding result was “no binding”.
For the molecule B14, the binding result was “no binding”.
Regarding B15, the binding result is listed as “no binding”.
As for B16, the binding result is on record as “no binding”.
In the case of B17, the binding result was “no binding”.
Still for that read-out and setting: then B18, with “no binding”.
Regarding B19, the binding result was “no binding”.
As for B20, the binding result is listed as “no binding”.
For the molecule B21, the binding result is given as “no binding”.

In the next assay the target is T2, human TREM2 on BWZ cells. Kind of assay: FACS, BWZ cells.
On to B1, for which the binding result is on record as “no binding”.
For the molecule B2, the binding result is reported as “no binding”.
Turning to B3, the binding result was “no binding”.
On to B4, for which the binding result is on record as “no binding”.
For B5, the binding result is given as “no binding”.
On to B6, for which the binding result is “no binding”.
Take B7: the binding result is given as “no binding”.
With B8, the binding result is “no binding”.
As to B9, the binding result is “no binding”.
Turning to B10, the binding result is recorded as “no binding”.
The same measure, in the same setting: then B11, with “no binding”.
For B12, the binding result is on record as “no binding”.
As for B13, the binding result is listed as “no binding”.
Turning to B14, the binding result is recorded as “no binding”.
Consider B15, for which the binding result is “no binding”.
On to B16, for which the binding result is listed as “no binding”.
On the same count and under the same terms, then B17, with “no binding”; and B18, with “no binding”; and B19, with “no binding”.
As to B20, the binding result was “no binding”.
For the molecule B21, the binding result is on record as “no binding”.
